{"source": "paper PMC6103272", "about": "“Genome-Wide Association Studies of Free Amino Acid Levels by Six Multi-Locus Models in Bread Wheat” (Frontiers in Plant Science, 2018)", "key": {"TraesCS1D01G052500": {"test_system": "T1, TraesCS1D01G052500", "T1 construct": "gene TDC; full-length cDNA in pGEX-6p-1; E. coli BL21(DE3)", "assay": "decarboxylase kinetics, Michaelis-Menten fit; product tryptamine by LC-MS", "assay_type": "biochemical, Triticum aestivum", "details": "50 ppm PLP; 10-1,250 uM tryptophan; assay buffer of the standard assay 50 mM Tris-HCl pH 8.0, 37 C"}, "[1]": {"test_system": "N[C@@H](Cc1c[nH]c2ccccc12)C(=O)O", "assay": "decarboxylase kinetics, Michaelis-Menten fit; product tryptamine by LC-MS", "assay_type": "biochemical, Oryza sativa", "details": "50 ppm PLP, 10-1,250 uM tryptophan, assay buffer of the standard assay 50 mM Tris-HCl pH 8.0, 37 C"}}, "data": [{"compound": "N[C@@H](Cc1c[nH]c2ccccc12)C(=O)O", "note": "[tryptophan]", "values": [{"measurement": "Km", "setting": "TraesCS1D01G052500", "value": "100 ± 10", "unit": "µM"}]}, {"compound": "OsTDC1 (Oryza sativa Japonica Group)", "values": [{"measurement": "Km", "setting": "[1]", "value": "310 ± 30", "unit": "µM"}, {"measurement": "kcat", "setting": "[1]", "value": "3.66 ± 0.27", "unit": "s⁻¹"}, {"measurement": "kcat/Km", "setting": "[1]", "value": 11800, "unit": "M⁻¹ s⁻¹"}]}]}
